The results in this text go back to patent US20230080534A1, “SEMG2 ANTIBODY AND USE THEREOF” (SHANGHAI BIOTROY BIOTECHNIQUE CO., LTD., priority 2020, published 2023).

In one experiment the target is T1, SEMG2(497-509) fragment (Homo sapiens, UniProt Q02383).
T1 construct: SEMG2(497-509) fragment and SEMG2(563-574) fragment were immobilized on the ELISA plate; made in house; host or cells: chemical synthesis
Description: ELISA binding of antibodies to SEMG2(497-509) epitope. Here is the method: Specifically, SEMG2 full-length protein (1-582), SEMG2(354-403) fragment, SEMG2(442-453) fragment, SEMG2(497-509) fragment and SEMG2(563-574) fragment were immobilized on the ELISA plate, and the same concentration of antibodies (MM02, MM05, MM07, MM08, MM13, MM14, HPA042767 and HPA042835) were added. Anti-mouse or anti-rabbit secondary antibodies were then used to detect the corresponding bound antibodies. MM02, MM05, MM07, MM08, MM13, and MM14 all bound to SEMG2(497509) epitope, HPA042767 bound to SEMG2 (354-403) epitope, and HPA042835 bound to […], while none of the antibodies bound to SEMG2 (442-453) control fragment.
Specifically, the preparation of polypeptide antigens and the screening of human natural antibody library were firstly performed. The SEMG2(497-509) polypeptide was synthesized and coupled to BSA and KLH, respectively, and screened in a fully human phage display antibody library. ELISA was used to select clones that bind to antigenic epitopes for preliminary screening. Different unique sequences were obtained after sequencing single colonies, sorted according to affinity sorting, and full-length antibodies were constructed from antigen-binding fragments (Fab) with relatively high affinity. The binding ability and blocking function tests were performed after purification, that is, the effect of the antibody on binding between SEMG2 and CD27 was determined by the ELISA experiment.
A general note: An ELISA detects its analyte on a solid surface through an enzyme-linked reagent.

Experiment [1] deals with LOVO human colorectal cancer cells. The experiment is described as follows: Tumor cell killing by activated PBMC, caspase-3/7 apoptosis. It is filed as cell-based. Particulars: SEMG2-positive, co-culture with activated PBMC 10:1. Here is the method: (§1) To test the above hypothesis, the effects of different epitope-specific antibodies on tumor cell killing by activated PBMC were compared. Specifically, A375 human melanoma and LOVO human colorectal cancer cells highly expressing SEMG2 were seeded in 96-well plate. Human peripheral blood mononuclear cells (PBMC; #70025, Stem Cell) were activated with 100 ng/mL of CD3 antibody, 100 ng/mL, of CD28 antibody, and 1.0 ng/mL of IL2 (#317303; #302913; #589102, BioLegend), respectively, and co-cultured with the above tumor cells at a ratio of 10:1 in presence of fluorescent caspase-3/7 substrate (#4440, Essen Bioscience). After 1.0 hours, cells were observed under fluorescence microscope.
(§2) To verify the above hypothesis, tumor cells with high SEMG2 expression (A375, LOVO) and SEMG2-negative tumor cells (DLD1, NCM460 and NCI-H1975) were selected. Different antibodies (irrelevant mouse IgG antibodies, MM02 or MM05 antibodies) were added during the PBMC killing experiments for the tumor cells.
(§3) To verify the effect of the human antibodies on the function of activated PBMC on tumor cell killing, A375 and LOVO cells were co-cultured with activated PBMC, and H88-93, H88-96, or H88-67 antibody was added at the same time, and the apoptosis ratio of tumor cells were detected.

Experiment [2] has as its system A375 human melanoma cells. The description is as above. The class given is cell-based. The settings on record: A375, SEMG2-positive, co-culture with activated PBMC 10:1. Here is the method: as §1, §2, §3
Experiment [3] has as its target T2, binding between SEMG2 and CD27 (Homo sapiens, UniProt Q02383).
T2 sequence (Q02383 24-582): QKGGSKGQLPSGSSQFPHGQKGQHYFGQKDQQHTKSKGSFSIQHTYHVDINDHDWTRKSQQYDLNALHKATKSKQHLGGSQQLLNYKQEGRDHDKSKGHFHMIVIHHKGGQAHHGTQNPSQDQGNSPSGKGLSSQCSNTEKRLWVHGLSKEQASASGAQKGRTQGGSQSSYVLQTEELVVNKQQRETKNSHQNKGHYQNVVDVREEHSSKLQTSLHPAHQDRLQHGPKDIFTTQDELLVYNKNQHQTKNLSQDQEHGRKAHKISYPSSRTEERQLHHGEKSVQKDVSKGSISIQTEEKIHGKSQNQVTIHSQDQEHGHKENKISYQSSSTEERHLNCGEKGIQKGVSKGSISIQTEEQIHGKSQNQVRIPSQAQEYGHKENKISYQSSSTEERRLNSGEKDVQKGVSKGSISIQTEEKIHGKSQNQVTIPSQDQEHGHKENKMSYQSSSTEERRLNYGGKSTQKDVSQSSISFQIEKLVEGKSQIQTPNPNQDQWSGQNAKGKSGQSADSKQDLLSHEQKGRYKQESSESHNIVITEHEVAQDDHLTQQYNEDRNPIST
Description: Antibody blocking ELISA of SEMG2 binding to CD27-Fc. The settings on record: antibody 10 μg/mL. From the text:
Because SEMG2 (497-509) sequence fragment is the key epitope of SEMG2 binding to CD27, and has a relatively short sequence, so SEMG2 (497-509) was used as an immunogen to prepare antibodies, which is theoretically easier to obtain functional antibody molecules with the function of blocking the binding between SEMG2 and CD27 than using full-length SEMG2 to prepare antibodies. For direct comparison, the differences in effective concentration of producing antibody by the two methods were verified using ELISA in the examples. Antibodies produced with SEMG2 (497-509) as immunogen and antibodies produced with full-length SEMG2 were added into the enzyme-linked immunosorbent assay (ELISA) reaction system at different concentrations (10^-2, 10^-1, 10^0, 10^1, 10^2, 10^3, 10^4 μg/mL), and the ELISA binding values were measured. The specific steps of enzyme-linked immunosorbent assay are as follows: (1) Dissolve SEMG2 protein antigen with 50 mM carbonate coating buffer (pH 9.6) to make the antigen concentration 10 μg/mL, and add into 96-well ELISA plate (purchased from Corning) at 100 μL/well, place at 4° C. overnight. (2) After discarding the coating solution on the next day, wash with PBST for three times, add 150 μL of 1% BSA to each well, and block for 2 hours at 37° C. […] (4) After washing for 5 times with PBST, add 100 of diluted HRP-labeled anti-human Fe secondary antibody, and incubate at 37° C. for 1 hour. (5) After washing with PBST for 5 times, 20 min after developing with chromogenic agent, the A450 absorption value was read using the microplate reader.
The SEMG2 (497-509) sequence was used to synthesize a polypeptide and coupled to a VLP carrier for immunization; HEK293 cells were used to express the full-length SEMG2 protein, and the purity was tested to reach 92%, and the binding activity of SEMG2 protein to CD27 was verified by ELISA. The protein and polypeptide antigens were used to immunize 10 mice respectively, and multiple immunizations were performed to enhance the effect: (1) The first immunization, 50 μg/mice of antigen, multiple subcutaneous injections together with Freund's complete adjuvant, with an interval of 3 weeks; (2) the second immunization; the same dosage and route as above, with incomplete Freund's adjuvant, and with an interval of 3 weeks; (3) the third immunization, the same dosage as above, without adjuvant, intraperitoneal injection with an interval of 3 weeks; (4) the booster immunization, the dose is 50 μg, intraperitoneal injection. 3 days after the last injection, blood was collected to measure its titer and the immune effect, and mice with higher titers were selected for hybridoma fusion screening. After subcloning, the binding of the monoclonal antibodies to the target antigens was detected by ELISA, and the function of different monoclonal antibodies in blocking the binding between SEMG2 and CD27 was measured by ELISA.
First, SEMG2(497-509) epitope-specific antibodies (for example, MM02, MM05) were compared with other epitope-specific antibodies (for example, HPA042767) for their function in blocking binding between SEMG2 and CD27 at different concentration ranges. […] The blocking function of different antibodies (irrelative mouse IgG, MM02, MM05, HPA042767) on binding between SEMG2 and CD27 was analyzed by the ELISA experiment as described in Example 11.
Further, the effects of different antibodies on the binding between SEMG2 and CD27 were compared under the condition of the same antibody concentration. In the ELISA, the same concentration (10 μg/mL) of antibody was used, and the strength of the binding between SEMG2 and CD27 was measured. […]

B1: MM14: mouse monoclonal antibody against SEMG2(497-509), mIgG2b kappa, VH SEQ ID NO:40, VL SEQ ID NO:47 (antibody, V domains shown)
VH: QVQLKESGPGLVAPSQSLSITCTVSGFSLTSYAVSWVRQPPGKGLEWLGIIWGDGSTNYHSALISRLSISKDNSKSQVFLKLNSLQTDDTATYYCAKQERFSDGYYDGFAYWGQGTLVTVSA
VL: QIVLTQSPAIMSASPGEKVTITCSASSSVSYMHWFQQKPGTSPKLWIYSTSNLASGVPARFSGSGSGTSYSLTISRMEAEDAATYYCQQRSSYPFTFGSGTKLEIKRA
modifications: UNSURE (1)..(122) VH; UNSURE (1)..(108) VL
Consider B1, for which, in the experiment with SEMG2(497-509) fragment, the “binding to SEMG2(497-509) epitope” value is listed as “bound”. Further, the “apoptosis tumor cell ratio / killing by activated PBMC” value (“apoptosis tumor cell ratio / killing” for short) in experiment [1] and in experiment [2] was “significantly increased” in each case. Moreover, the “effect on the binding between SEMG2 and CD27” value (from here on “effect”) in experiment [3] is “significantly reduced the binding”.

B2: MM07: mouse monoclonal antibody against SEMG2(497-509), mIgG2b kappa, VH SEQ ID NO:37, VL SEQ ID NO:44 (antibody, V domains shown)
VH: MDWLWTLLFLMAAAQSIQAQIQLVQSGPELKKPGETVRISCKASGYTLTTAGMQWVQKIPGKGLKWIGWINTHSGVAEFAEDFKGRFAFSLETSANTAYLQIRNLKNEDTATYFCARLGLLGYWGQGTTLTVSS
VL: MVSSAQFLVFLLFWIPASRGDILLTQSPAILSVSPGERVSFSCRASQSIGTTIHWYQQRTNGSPRLLIKYASESISGIPSRFSGSGSGTDFTLSINSVESEDIADYYCQQSNSWPWTFGGGTKLEIKRA
modifications: UNSURE (1)..(134) VH; UNSURE (1)..(129) VL
B2: the “binding to SEMG2(497-509) epitope” value with SEMG2(497-509) fragment was “bound”. For the same molecule, the “apoptosis tumor cell ratio / killing” value in experiment [1] and in experiment [2] was “significantly increased” each time. For the same molecule, the “effect” value in experiment [3] was “significantly reduced the binding”.

B3: H88-96: fully human antibody from phage library against SEMG2(497-509), VH SEQ ID NO:54, VL SEQ ID NO:57 (antibody, V domains shown)
VH: QVQLLESGGGLVQPGGSLRLSCSASGFTFSSYAMHWVRQAPGKGLEYVSAISSNGGSTYYADSVKGRFTISRDNSKNTLYLQMSSLRAEDTAVYYCVIEGGSTTGTTSGAFDIWGQGTMVTVSS
VL: DIQMIQSPPSVSASVGDTVTIACRANQGIDSWLAWYQQKPGRAPKLLIYSASRLQSGVPSRFSGGGSGTDFALTISNLQPEDFATYYCQQALSLPITFGQGTRLEIK
modifications: UNSURE (1)..(124) VH; UNSURE (1)..(107) VL
Regarding B3, the “binding to SEMG2(497-509) epitope” value with SEMG2(497-509) fragment is listed as “bind”. Besides, the “apoptosis tumor cell ratio / killing” value in experiment [1] and in experiment [2] was “significantly promote the killing” in each case. In addition, the “effect” value in experiment [3] is given as “inhibited the binding”.

B4: MM08: mouse monoclonal antibody against SEMG2(497-509), mIgG1 kappa, VH SEQ ID NO:38, VL SEQ ID NO:45 (antibody, V domains shown)
VH: QVQLQQPGAELVRPGASVKLSCKSSDYTFTRYWMNWVKQRPGQGLEWIGMIDPSDSETHHNQMFKDKATLTVDKSSSTAYMQLSSLTSEDSAVYFCARYLGGKEGSFDYWGQGTTLTVSS
VL: DIVLTQSPSSLAVSAGERVTMSCKSSQSLFNSRTRKNYLAWYQQKPGQSPKLLLYWASTRESGVPDRFTGSGSGTDFTLTISSVKTEDLAVYYCKQSYELPWTFGGGTKLEMKRA
modifications: UNSURE (1)..(120) VH; UNSURE (1)..(115) VL
Take B4: the “binding to SEMG2(497-509) epitope” value with SEMG2(497-509) fragment is “bound”. Besides, the “apoptosis tumor cell ratio / killing” value in experiment [1] and in experiment [2] was “significantly increased” in each case. In experiment [3], the “effect” value was “significantly reduced the binding”.
